We go through one molecule from publication PMC7291361 (ACS infectious diseases, 2020).

The target of this assay is H4 NB-10 HA full length soluble ectodomain (FLsE) (Influenza A virus A/American black …, UniProt M1UPL4, strain). Briefly: ELISA. (In general: ELISA stands for enzyme-linked immunosorbent assay.)

B1: K03.12 IgG (antibody, V domains shown)
VH: QVQLVQSGAEVKKPGASVKVSCKTSGYTFTAYYLHWVRQAPGQGFEWMAWINPNTGDTNYAQKFQGRVTLSRDTSITTAYMELTRLRSDDTAVYYCAKDLTLMYVFDSGWARGAHDYYGMDVWGQGTTVAVSG
VL: PSALTQPASVSGSPGQSVTISCTGTNSDVGTFDLVSWYQQYPGKAPKLIIYEGSRRPSGVSDRFSGSKSGNTASLTISGLQAEDEADYYCSSYAGSVVFGGGTKLTVL
Take B1: the binding result is “no binding (tested: 1 μM IgG)”.
